Results from IntAct's records for PubMed 23873930.

B1: Transmembrane gamma-carboxyglutamic acid protein 4 (Homo sapiens), Q9BZD6 (parent)
chain: MFTLLVLLSQLPTVTLGFPHCARGPKASKHAGEEVFTSKEEANFFIHRRLLYNRFDLELFTPGNLERECNEELCNYEEAREIFVDEDKTIAFWQEYSAKGPTTKSDGNREKIDVMGLLTGLIAAGVFLVIFGLLGYYLCITKCNRLQHPCSSAVYERGRHTPSIIFRRPEEAALSPLPPSVEDAGLPSYEQAVALTRKHSVSPPPPYPGHTKGFRVFKKSMSLPSH
partner: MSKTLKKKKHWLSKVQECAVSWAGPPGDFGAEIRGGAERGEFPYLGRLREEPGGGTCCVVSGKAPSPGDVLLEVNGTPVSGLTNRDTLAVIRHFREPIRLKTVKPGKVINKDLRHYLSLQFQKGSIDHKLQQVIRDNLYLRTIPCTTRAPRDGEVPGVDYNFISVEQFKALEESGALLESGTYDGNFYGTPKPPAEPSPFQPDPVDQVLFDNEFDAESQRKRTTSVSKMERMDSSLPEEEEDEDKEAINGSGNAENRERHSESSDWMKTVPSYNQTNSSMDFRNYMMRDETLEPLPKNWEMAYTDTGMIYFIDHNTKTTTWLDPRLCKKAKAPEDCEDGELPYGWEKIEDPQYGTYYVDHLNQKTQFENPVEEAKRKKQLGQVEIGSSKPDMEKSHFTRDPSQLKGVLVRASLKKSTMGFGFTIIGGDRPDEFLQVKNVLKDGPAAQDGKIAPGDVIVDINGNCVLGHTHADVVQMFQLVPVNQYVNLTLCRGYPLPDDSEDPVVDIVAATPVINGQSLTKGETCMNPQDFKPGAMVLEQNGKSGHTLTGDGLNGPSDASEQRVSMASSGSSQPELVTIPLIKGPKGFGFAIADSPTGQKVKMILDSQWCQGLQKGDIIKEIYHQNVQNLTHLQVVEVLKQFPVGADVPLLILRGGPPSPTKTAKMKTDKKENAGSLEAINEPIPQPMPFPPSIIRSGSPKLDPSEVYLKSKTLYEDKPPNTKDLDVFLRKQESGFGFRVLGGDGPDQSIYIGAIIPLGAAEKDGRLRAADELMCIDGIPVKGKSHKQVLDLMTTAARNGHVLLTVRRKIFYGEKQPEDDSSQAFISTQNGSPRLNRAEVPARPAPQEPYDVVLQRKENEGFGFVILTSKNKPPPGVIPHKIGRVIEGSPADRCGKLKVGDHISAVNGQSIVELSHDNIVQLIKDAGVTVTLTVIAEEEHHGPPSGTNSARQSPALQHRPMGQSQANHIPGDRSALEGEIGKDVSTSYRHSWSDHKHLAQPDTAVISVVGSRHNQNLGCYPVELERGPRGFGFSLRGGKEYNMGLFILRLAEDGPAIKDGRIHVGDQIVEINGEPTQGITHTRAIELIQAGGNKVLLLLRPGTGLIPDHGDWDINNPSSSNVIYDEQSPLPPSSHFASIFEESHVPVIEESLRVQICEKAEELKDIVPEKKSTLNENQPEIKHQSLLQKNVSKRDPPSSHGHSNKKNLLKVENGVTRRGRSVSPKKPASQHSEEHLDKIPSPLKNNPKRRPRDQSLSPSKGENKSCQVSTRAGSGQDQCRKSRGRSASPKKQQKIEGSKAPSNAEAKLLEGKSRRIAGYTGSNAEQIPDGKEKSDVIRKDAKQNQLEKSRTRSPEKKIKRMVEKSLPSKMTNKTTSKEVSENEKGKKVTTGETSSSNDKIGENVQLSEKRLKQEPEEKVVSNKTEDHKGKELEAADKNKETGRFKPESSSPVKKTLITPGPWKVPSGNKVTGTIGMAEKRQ
B2: Transcriptional coactivator YAP1 (Homo sapiens), P46937-3 (parent)
chain: MDPGQQPPPQPAPQGQGQPPSQPPQGQGPPSGPGQPAPAATQAAPQAPPAGHQIVHVRGDSETDLEALFNAVMNPKTANVPQTVPMRLRKLPDSFFKPPEPKSHSRQASTDAGTAGALTPQHVRAHSSPASLQLGAVSPGTLTPTGVVSGPAATPTAQHLRQSSFEIPDDVPLPAGWEMAKTSSGQRYFLNHIDQTTTWQDPRKAMLSQMNVTAPTSPPVQQNMMNSASAMNQRISQSAPVKQPPPLAPQSPQGGVMGGSNSNQQQQMRLQQLQMEKERLRLKQQELLRQVRPQELALRSQLPTLEQDGGTQNPVSSPGMSQELRTMTTNSSDPFLNSGTYHSRDESTDSGLSMSSYSVPRTPDDFLNSVDEMDTGDTINQSTLPSQQNRFPDYLEAIPGTNVDLGTLEGDGMNIEGEELMPSLQEALSSDILNDMESVLAATKLDKESFLTWL
partner: B1 chain
B3: Transmembrane gamma-carboxyglutamic acid protein 4 (Homo sapiens), Q9BZD6 (parent)
chain: B1 chain

Variants of: B1
Conditions: with magi3_human MAGI3, Q5TCQ9

effect of a mutation on the interaction | Variant
disrupting interaction strength | MFTLLVLLSQLPTVTLGFPHCARGPKASKHAGEEVFTSKEEANFFIHRRLLYNRFDLELFTPGNLERECNEELCNYEEAREIFVDEDKTIAFWQEYSAKGPTTKSDGNREKIDVMGLLTGLIAAGVFLVIFGLLGYYLCITKCNRLQHPCSSAVYERGRHTPSIIFRRPEEAALSPLPPSVEDAGLPSAEQAVALTRKHSVSPPPPYPGHTKGFRVFKKSMSLPSH [Y189A]
with no effect | MFTLLVLLSQLPTVTLGFPHCARGPKASKHAGEEVFTSKEEANFFIHRRLLYNRFDLELFTPGNLERECNEELCNYEEAREIFVDEDKTIAFWQEYSAKGPTTKSDGNREKIDVMGLLTGLIAAGVFLVIFGLLGYYLCITKCNRLQHPCSSAVYERGRHTPSIIFRRPEEAALSPLPPSVEDAGLPSYEQAVALTRKHSVSPPPPAPGHTKGFRVFKKSMSLPSH [Y207A]

Variants of: B2
Conditions: with tmg4_human PRRG4, Q9BZD6

effect of a mutation on the interaction | Variant
disrupting interaction strength | W199A;P202A
with no effect | S127A

Variants of: B3
Conditions: with Magi1, Q6RHR9-1
Magi1, Q6RHR9-1, sequence (Q6RHR9 whole entry): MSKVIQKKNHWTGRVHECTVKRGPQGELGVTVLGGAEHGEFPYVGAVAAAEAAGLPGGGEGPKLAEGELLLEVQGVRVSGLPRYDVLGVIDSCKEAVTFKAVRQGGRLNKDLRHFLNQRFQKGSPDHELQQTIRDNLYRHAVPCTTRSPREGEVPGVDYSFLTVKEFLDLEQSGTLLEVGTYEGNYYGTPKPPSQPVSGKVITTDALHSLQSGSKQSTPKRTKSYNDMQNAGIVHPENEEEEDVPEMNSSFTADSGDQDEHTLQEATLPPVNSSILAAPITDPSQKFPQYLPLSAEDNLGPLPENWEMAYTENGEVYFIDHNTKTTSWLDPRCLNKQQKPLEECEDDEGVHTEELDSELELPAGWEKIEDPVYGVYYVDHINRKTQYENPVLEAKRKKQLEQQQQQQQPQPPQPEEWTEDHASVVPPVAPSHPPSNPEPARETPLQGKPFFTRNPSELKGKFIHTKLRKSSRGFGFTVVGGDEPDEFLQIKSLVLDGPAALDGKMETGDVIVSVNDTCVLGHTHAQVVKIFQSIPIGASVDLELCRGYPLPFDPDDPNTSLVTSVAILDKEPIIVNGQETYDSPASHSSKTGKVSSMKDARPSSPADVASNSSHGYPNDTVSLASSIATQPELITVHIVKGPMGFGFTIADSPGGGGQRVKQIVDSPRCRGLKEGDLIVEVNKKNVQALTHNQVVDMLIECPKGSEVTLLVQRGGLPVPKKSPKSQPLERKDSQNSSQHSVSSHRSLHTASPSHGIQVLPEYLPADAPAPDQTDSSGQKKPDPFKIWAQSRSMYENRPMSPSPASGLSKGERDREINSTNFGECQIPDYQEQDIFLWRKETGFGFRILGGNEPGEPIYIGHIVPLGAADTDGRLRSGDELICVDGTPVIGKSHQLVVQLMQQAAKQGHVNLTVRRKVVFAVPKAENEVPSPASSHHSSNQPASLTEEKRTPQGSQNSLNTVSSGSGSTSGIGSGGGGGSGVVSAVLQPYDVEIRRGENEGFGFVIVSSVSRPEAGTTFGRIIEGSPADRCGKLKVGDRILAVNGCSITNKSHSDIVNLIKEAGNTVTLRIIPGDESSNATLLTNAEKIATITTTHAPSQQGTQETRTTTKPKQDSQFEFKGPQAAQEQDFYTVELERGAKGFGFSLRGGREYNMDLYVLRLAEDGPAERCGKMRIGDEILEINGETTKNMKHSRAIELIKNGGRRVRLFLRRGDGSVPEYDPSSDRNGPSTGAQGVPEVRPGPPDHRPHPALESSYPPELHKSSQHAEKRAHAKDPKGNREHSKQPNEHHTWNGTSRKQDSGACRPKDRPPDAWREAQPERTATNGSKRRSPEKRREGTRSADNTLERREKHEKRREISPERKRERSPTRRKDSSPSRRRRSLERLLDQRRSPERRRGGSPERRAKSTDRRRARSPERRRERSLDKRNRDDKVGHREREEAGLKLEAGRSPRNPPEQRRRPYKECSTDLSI

effect of a mutation on the interaction | Variant
decreasing interaction strength | MFTLLVLLSQLPTVTLGFPHCARGPKASKHAGEEVFTSKEEANFFIHRRLLYNRFDLELFTPGNLERECNEELCNYEEAREIFVDEDKTIAFWQEYSAKGPTTKSDGNREKIDVMGLLTGLIAAGVFLVIFGLLGYYLCITKCNRLQHPCSSAVYERGRHTPSIIFRRPEEAALSPLPPSVEDAGLPSYEQAVALTRKHSVSPPPPAPGHTKGFRVFKKSMSLPSH [Y207A]
disrupting interaction strength | MFTLLVLLSQLPTVTLGFPHCARGPKASKHAGEEVFTSKEEANFFIHRRLLYNRFDLELFTPGNLERECNEELCNYEEAREIFVDEDKTIAFWQEYSAKGPTTKSDGNREKIDVMGLLTGLIAAGVFLVIFGLLGYYLCITKCNRLQHPCSSAVYERGRHTPSIIFRRPEEAALSPLPPSVEDAGLPSAEQAVALTRKHSVSPPPPYPGHTKGFRVFKKSMSLPSH [Y189A]

Variants of: B3
Conditions: with wwtr1_human WWTR1, Q9GZV5
wwtr1_human WWTR1, Q9GZV5, sequence (Q9GZV5 whole entry): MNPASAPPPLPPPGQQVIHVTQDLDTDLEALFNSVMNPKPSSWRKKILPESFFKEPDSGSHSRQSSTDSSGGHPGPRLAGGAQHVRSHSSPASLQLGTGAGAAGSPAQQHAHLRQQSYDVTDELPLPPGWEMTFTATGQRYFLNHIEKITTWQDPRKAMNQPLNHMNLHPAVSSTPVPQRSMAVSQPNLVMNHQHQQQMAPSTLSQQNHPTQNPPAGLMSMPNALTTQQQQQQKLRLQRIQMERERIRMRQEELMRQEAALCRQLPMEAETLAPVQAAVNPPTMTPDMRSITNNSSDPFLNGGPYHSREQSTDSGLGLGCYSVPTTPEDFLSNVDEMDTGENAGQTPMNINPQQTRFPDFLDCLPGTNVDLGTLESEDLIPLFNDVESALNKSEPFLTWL

effect of a mutation on the interaction | Variant
with no effect | MFTLLVLLSQLPTVTLGFPHCARGPKASKHAGEEVFTSKEEANFFIHRRLLYNRFDLELFTPGNLERECNEELCNYEEAREIFVDEDKTIAFWQEYSAKGPTTKSDGNREKIDVMGLLTGLIAAGVFLVIFGLLGYYLCITKCNRLQHPCSSAVYERGRHTPSIIFRRPEEAALSPLPPSVEDAGLPSYEQAVALTRKHSVSPPPPAPGHTKGFRVFKKSMSLPSH [Y207A]
disrupting interaction strength | MFTLLVLLSQLPTVTLGFPHCARGPKASKHAGEEVFTSKEEANFFIHRRLLYNRFDLELFTPGNLERECNEELCNYEEAREIFVDEDKTIAFWQEYSAKGPTTKSDGNREKIDVMGLLTGLIAAGVFLVIFGLLGYYLCITKCNRLQHPCSSAVYERGRHTPSIIFRRPEEAALSPLPPSVEDAGLPSAEQAVALTRKHSVSPPPPYPGHTKGFRVFKKSMSLPSH [Y189A]

Variants of: B3
Conditions: with YAP1, P46937-3

effect of a mutation on the interaction | Variant
with no effect | MFTLLVLLSQLPTVTLGFPHCARGPKASKHAGEEVFTSKEEANFFIHRRLLYNRFDLELFTPGNLERECNEELCNYEEAREIFVDEDKTIAFWQEYSAKGPTTKSDGNREKIDVMGLLTGLIAAGVFLVIFGLLGYYLCITKCNRLQHPCSSAVYERGRHTPSIIFRRPEEAALSPLPPSVEDAGLPSYEQAVALTRKHSVSPPPPAPGHTKGFRVFKKSMSLPSH [Y207A]
disrupting interaction strength | MFTLLVLLSQLPTVTLGFPHCARGPKASKHAGEEVFTSKEEANFFIHRRLLYNRFDLELFTPGNLERECNEELCNYEEAREIFVDEDKTIAFWQEYSAKGPTTKSDGNREKIDVMGLLTGLIAAGVFLVIFGLLGYYLCITKCNRLQHPCSSAVYERGRHTPSIIFRRPEEAALSPLPPSVEDAGLPSAEQAVALTRKHSVSPPPPYPGHTKGFRVFKKSMSLPSH [Y189A]

Variants of: B3
Conditions: with ned4l_human NEDD4L

effect of a mutation on the interaction | Variant
with no effect | MFTLLVLLSQLPTVTLGFPHCARGPKASKHAGEEVFTSKEEANFFIHRRLLYNRFDLELFTPGNLERECNEELCNYEEAREIFVDEDKTIAFWQEYSAKGPTTKSDGNREKIDVMGLLTGLIAAGVFLVIFGLLGYYLCITKCNRLQHPCSSAVYERGRHTPSIIFRRPEEAALSPLPPSVEDAGLPSYEQAVALTRKHSVSPPPPAPGHTKGFRVFKKSMSLPSH [Y207A]
disrupting interaction strength | MFTLLVLLSQLPTVTLGFPHCARGPKASKHAGEEVFTSKEEANFFIHRRLLYNRFDLELFTPGNLERECNEELCNYEEAREIFVDEDKTIAFWQEYSAKGPTTKSDGNREKIDVMGLLTGLIAAGVFLVIFGLLGYYLCITKCNRLQHPCSSAVYERGRHTPSIIFRRPEEAALSPLPPSVEDAGLPSAEQAVALTRKHSVSPPPPYPGHTKGFRVFKKSMSLPSH [Y189A]

Variants of: B3
Conditions: with nedd4_human NEDD4, P46934
nedd4_human NEDD4, P46934, sequence (P46934 whole entry): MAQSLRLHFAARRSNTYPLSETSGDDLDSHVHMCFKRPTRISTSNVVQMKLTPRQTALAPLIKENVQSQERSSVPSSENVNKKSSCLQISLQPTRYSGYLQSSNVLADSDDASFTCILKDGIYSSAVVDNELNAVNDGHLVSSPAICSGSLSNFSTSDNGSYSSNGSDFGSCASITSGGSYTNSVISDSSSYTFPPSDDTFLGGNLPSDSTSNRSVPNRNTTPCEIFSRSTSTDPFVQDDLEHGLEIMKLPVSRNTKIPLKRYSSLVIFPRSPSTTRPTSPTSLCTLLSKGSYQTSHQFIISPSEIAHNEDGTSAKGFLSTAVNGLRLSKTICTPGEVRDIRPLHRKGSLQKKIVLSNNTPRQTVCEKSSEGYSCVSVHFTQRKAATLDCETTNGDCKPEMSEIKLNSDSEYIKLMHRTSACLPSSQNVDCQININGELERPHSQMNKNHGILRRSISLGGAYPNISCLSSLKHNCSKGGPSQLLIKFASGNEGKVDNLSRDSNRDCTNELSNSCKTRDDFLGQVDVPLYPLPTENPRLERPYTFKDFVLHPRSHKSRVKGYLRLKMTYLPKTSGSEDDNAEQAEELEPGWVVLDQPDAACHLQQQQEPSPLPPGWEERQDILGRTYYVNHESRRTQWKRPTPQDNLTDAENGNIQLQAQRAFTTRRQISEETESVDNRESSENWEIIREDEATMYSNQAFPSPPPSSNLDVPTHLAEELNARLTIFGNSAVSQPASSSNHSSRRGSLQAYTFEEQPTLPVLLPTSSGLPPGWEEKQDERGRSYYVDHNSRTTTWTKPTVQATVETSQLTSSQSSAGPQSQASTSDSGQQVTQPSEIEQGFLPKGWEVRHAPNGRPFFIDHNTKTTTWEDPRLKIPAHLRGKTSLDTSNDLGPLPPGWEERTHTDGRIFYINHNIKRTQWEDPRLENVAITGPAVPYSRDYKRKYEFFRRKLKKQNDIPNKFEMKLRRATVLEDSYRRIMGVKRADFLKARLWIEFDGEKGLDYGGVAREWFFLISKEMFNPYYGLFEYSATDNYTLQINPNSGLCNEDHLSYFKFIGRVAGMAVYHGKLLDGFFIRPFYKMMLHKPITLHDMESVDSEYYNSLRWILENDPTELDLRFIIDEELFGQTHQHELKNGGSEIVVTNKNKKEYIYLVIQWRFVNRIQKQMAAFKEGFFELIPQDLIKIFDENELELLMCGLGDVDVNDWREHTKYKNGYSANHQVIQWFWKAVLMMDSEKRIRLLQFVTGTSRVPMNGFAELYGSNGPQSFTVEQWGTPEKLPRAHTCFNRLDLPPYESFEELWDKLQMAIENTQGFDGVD

effect of a mutation on the interaction | Variant
with no effect | MFTLLVLLSQLPTVTLGFPHCARGPKASKHAGEEVFTSKEEANFFIHRRLLYNRFDLELFTPGNLERECNEELCNYEEAREIFVDEDKTIAFWQEYSAKGPTTKSDGNREKIDVMGLLTGLIAAGVFLVIFGLLGYYLCITKCNRLQHPCSSAVYERGRHTPSIIFRRPEEAALSPLPPSVEDAGLPSYEQAVALTRKHSVSPPPPAPGHTKGFRVFKKSMSLPSH [Y207A]
disrupting interaction strength | MFTLLVLLSQLPTVTLGFPHCARGPKASKHAGEEVFTSKEEANFFIHRRLLYNRFDLELFTPGNLERECNEELCNYEEAREIFVDEDKTIAFWQEYSAKGPTTKSDGNREKIDVMGLLTGLIAAGVFLVIFGLLGYYLCITKCNRLQHPCSSAVYERGRHTPSIIFRRPEEAALSPLPPSVEDAGLPSAEQAVALTRKHSVSPPPPYPGHTKGFRVFKKSMSLPSH [Y189A]
